# B1: C5a: complement activation fragment (anaphylatoxin) added to cells (protein, UniProt P01031 678-751, looked up)
# C5a anaphylatoxin: TLQKKIEEIAAKYKHSVVKKCCYDGACVNNDETCEQRAARISLGPRCIKAFTECCVVASQLRANISHKDMQLGR
# modifications: C5a anaphylatoxin
# Key:
# [1] = system: NIH-3T3 cells, bEND.3 ECs, TC-1 cancer cells; assay: Cell cycle assay (propidium iodide staining) of serum starved cells; format: cell-based; settings: C5a added to serum starved cells; identical to EGF or VEGF-A
# Description: Because this dependence of growth factor responsiveness on C3aR/C5aR signaling could be indirect, i.e., a consequence of its requirement for viability, we performed cell cycle assays.
# (§1) Propidium iodide staining was performed as described previously […]. In brief, the cells were serum starved for 24 hrs followed by administration of 1 μM colchicine (Sigma). 16 hrs following colchicine treatment, cells were given either growth factor treatment or 17 ng/mL mC5a. After an additional 24 hrs, cells were removed from plating via Trypsin/EDTA and fixed in 0.25% Formaldehyde for 10 mins at 37° C. Cells were spun out of formaldehyde solution and resuspended in 90% methanol at 4° C. until assayed. Following removal from methanol, excess RNA was removed via treatment with RNase (Sigma) and stained with propidium iodide for 30 mins at 4° C. Cells were analyzed on an Epics XL.
# HUVEC [2] = assay: Cell cycle assay of serum starved HUVEC; format: cell-based; settings: identical to adding VEGF-A
# Description: as §1
# Because the disruptive effect of C3aR/C5aR antagonism on VEGF growth induction could be a consequence of the requirement of autocrine C3aR/C5aR signaling for EC viability, we performed cell cycle assays. […] These findings that autocrine C3aR/C5aR signaling not only prevents EC apoptosis but drives EC growth point to a bidirectional signaling mechanism wherein C3aR/C5aR GPCR signaling transactivates to VEGFR2 signaling and vice versa.
# NIH-3T3 cells = assay: Cell cycle assay of serum starved NIH-3T3 cells (PDGF study); format: cell-based; settings: identical to adding PDGF
# Description: as §1
# PDGF contributes to atherogenesis and plays a central role in neointimal proliferation following EC injury. […] Following determination of optimal PDGF-AA doses, we incubated 1×10^5 cells/well in triplicate with 30 ng/ml of PDGF-AA±10 ng/ml of C3aR and C5aR antagonists (C3aR-A/C5aR-A), 10 ng/ml of anti-C3a/anti-C5a mAbs or respective controls, after which we quantified cell growth by counting cell numbers over time. […] To directly establish whether C5aR signals augment PDGF-AA growth signaling, we 1) quantified the effect of added C5a one growth, and 2) assayed C5a in culture supernatants of PDGF-AA treated cells. […]
# VEGFR2 = VEGFR2 phosphorylation immunoblot in serum starved primary WT aortic ECs; format: cell-based, murine; settings: added C5a, relative to untreated controls
# Description: FIG. 21 illustrates an immunoblot of VEGFR2 phosphorylation. C5a or VEGF-A was added to serum starved primary cultures of WT murine ECs in the absence or presence of C3aR-A/C5aR-A and VEGFR2 phosphorylation assessed by immunoblotting with anti […] mAb.
# To directly establish whether C3aR/C5aR signaling is integral to VEGF signaling, we next evaluated phosphorylation of VEGFR2. We tested 1) how adding C5a to primary WT ECs affects VEGFR2 autophosphorylation and 2) whether VEGFR2 phosphorylation induced by added VEGF-A is affected by antagonizing C3aR/C5aR signaling. We incubated serum starved WT aortic ECs with C5a or with VEGF-A in the absence or presence of C3aR-A/C5aR-A, after which we probed immunoblots of protein lysates and anti-pVEGFR2^Y1054/1059 mAb or pan VEGFR2 antibody.
# NIH-3T3 fibroblasts = assay: PDGF-AA growth induction of NIH-3T3 fibroblasts (cell counts over time); format: cell-based; settings: added C5a by itself
# Description: PDGF contributes to atherogenesis and plays a central role in neointimal proliferation following EC injury. In view of the growth difference of primary cultured Daf1^−/−, WT, C3aR^−/−C5aR^−/−, and C3^−/−C5^−/−SMCs, we examined whether C3aR/C5aR signals are interconnected with PDGF growth induction. For these studies, we utilized NIH-3T3 fibroblasts (which express PDGFR-αα) in conjunction with PDGF-AA. Following determination of optimal PDGF-AA doses, we incubated 1×10^5 cells/well in triplicate with 30 ng/ml of PDGF-AA±10 ng/ml of C3aR and C5aR antagonists (C3aR-A/C5aR-A), 10 ng/ml of anti-C3a/anti-C5a mAbs or respective controls, after which we quantified cell growth by counting cell numbers over time. […] To directly establish whether C5aR signals augment PDGF-AA growth signaling, we 1) quantified the effect of added C5a one growth, and 2) assayed C5a in culture supernatants of PDGF-AA treated cells. […] Because the dependence of PDGF growth induction on C3aR/C5aR signaling could be indirect, i.e., a consequence of its requirement for viability, we performed cell cycle assays.
# HUVEC [3] = assay: Complement mRNA transcripts in HUVEC by qPCR; format: cell-based; settings: added C3a or C5a
# Description: FIG. 33 illustrates charts showing qRT-PCR analysis of C3, factor B and factor D transcripts from HUVEC under hypoxia. A) HUVEC treated with TNF-α, IL-1, and IFN-γ. Blue bars represent samples after treatment. B-C) HUVEC stimulated with C3a (10 ng/ml for 2 hr) or C5a (10 ng/ml for 30 min) Blue bars represent control without C3a/C5a stimulation while red bars represent samples after stimulation. D) HUVEC incubated for 1 hr with FCCP+IAA. Blue bars represent control without hypoxia treatment while yellow bars represent two samples after hypoxia treatment.
# We next conversely assessed how transducing C3aR/C5aR signals into ECs affects endogenous EC complement production and whether it is connected with “classical” EC responses. We incubated HUVEC with 1) inflammatory cytokines, 2) the mitochondrial uncoupler protonophore carbonyl cyanide p-(trifluoromethoxy)phenylhydrazone (FCCP)+iodoacetate (IAA) (which mimics hypoxia), or 3) C3a or C5a, after which we assayed complement mRNA transcripts by qPCR. […]
# ECs and leukocytes locally synthesize C3/fB/fD/C5 and the elicited C3a/C5a signal through C3aR/C5aR on the same cells to amplify this synthesis. To determine whether ECs locally synthesize AP complement components, we added IL-1/IFN-γ/TNF-α to HUVEC, 1 hr after which we quantified C3 and fB transcripts by qPCR. […]
# [4] = system: Raji, Jurkat, U937 cells, primary mΦs, B cells, and DCs; assay: AP and C5 gene transcription in leukocytes by qPCR; format: cell-based; settings: 10 nM C5a
# From the text: ECs and leukocytes locally synthesize C3/fB/fD/C5 and the elicited C3a/C5a signal through C3aR/C5aR on the same cells to amplify this synthesis. To determine whether ECs locally synthesize AP complement components, we added IL-1/IFN-γ/TNF-α to HUVEC, 1 hr after which we quantified C3 and fB transcripts by qPCR. […] To test whether leukocytes that are recruited to sites of EC injury locally synthesize AP components and C5a similarly feeds back in them to amplify local complement production, we stimulated Raji, Jurkat, U937 cells, primary mΦs, B cells, and DCs with 10 nM C5a. This documented induction of AP and C5 gene transcription by qPCR.
# C5aR = assay: Proinflammatory gene transcription induced by C5aR signaling; format: cell-based; settings: added C5a
# From the text: In view of the connections of MCP-1 and other proinflammatory cytokines with atherosclerosis and the mechanistic linkage of DAF deficiency with potentiated C3aR/C5aR transduction, we tested whether C5aR signaling induces proinflammatory gene transcription. Added C5a induced the mRNA transcription of chemotactic MCP-1/IL-8, proinflammatory IL-1β/IL-6 and growth inductive GM-CSF.
molecule,measurement,setting,value
B1,cell cycle transition after adding C5a,[1],transition from G0 into G2
same,cell cycle transition after adding C5a,HUVEC [2],transition from G0 into G2
same,cell cycle transition after adding C5a,NIH-3T3 cells,transition from G0 into G2
same,VEGFR2 Y1054/1059 phosphorylation,VEGFR2,increased
same,proliferation of NIH-3T3 cells,NIH-3T3 fibroblasts,induced proliferation
same,production of AP components by ECs,HUVEC [3],more AP components
same,transcription of C3,HUVEC [3],increased
same,AP and C5 gene transcription,[4],induction
same,"mRNA transcription of MCP-1/IL-8, IL-1β/IL-6 and GM-CSF",C5aR,induced
